Experimental data: patent US10428140B2, “Anti-EphA4 antibody” (EISAI R&D MANAGEMENT CO., LTD., priority 2015, dated 2019)
Numbering of substitutions follows the chain as printed.

T1: human EphA8 (Homo sapiens, UniProt P29322)
T1 construct: a protein of the extracellular region of each human Eph receptor fused with the SEAP protein and the His tag; made in house; host or cells: Expi293F cells (culture supernatant)
T1 sequence (P29322 28-542 limits assumed): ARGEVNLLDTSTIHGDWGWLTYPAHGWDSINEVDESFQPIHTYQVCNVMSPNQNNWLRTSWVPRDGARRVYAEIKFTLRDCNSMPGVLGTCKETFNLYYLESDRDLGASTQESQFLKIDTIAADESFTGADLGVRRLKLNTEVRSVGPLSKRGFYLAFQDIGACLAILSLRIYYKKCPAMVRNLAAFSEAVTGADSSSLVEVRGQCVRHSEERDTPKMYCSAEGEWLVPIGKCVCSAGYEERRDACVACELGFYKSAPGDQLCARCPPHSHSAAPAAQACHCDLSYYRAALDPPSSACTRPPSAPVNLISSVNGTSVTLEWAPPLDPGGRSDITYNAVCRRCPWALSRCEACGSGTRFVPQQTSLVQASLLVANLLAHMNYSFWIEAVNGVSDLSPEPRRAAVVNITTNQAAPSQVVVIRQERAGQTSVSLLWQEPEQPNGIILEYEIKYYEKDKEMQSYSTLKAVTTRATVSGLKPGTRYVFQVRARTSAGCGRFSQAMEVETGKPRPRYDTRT

T2: human EphA1 (Homo sapiens, UniProt P21709)
T2 construct: a protein of the extracellular region of each human Eph receptor fused with the SEAP protein and the His tag; made in house; host or cells: Expi293F cells (culture supernatant)
T2 sequence (P21709 26-547 limits assumed): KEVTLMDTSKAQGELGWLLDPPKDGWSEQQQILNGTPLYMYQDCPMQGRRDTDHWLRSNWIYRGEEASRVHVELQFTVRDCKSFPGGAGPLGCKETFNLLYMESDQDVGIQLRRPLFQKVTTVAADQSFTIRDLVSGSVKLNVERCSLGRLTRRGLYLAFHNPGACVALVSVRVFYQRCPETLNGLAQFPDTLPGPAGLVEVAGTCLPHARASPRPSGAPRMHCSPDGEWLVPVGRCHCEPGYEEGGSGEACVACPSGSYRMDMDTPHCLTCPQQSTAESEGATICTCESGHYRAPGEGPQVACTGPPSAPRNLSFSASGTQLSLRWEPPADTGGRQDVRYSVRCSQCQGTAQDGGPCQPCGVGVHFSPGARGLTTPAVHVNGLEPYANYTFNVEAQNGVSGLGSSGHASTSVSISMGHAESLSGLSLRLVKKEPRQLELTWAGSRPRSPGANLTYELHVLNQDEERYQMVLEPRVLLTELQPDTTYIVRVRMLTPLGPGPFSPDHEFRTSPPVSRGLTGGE

T3: human EphB1 (Homo sapiens, UniProt P54762)
T3 construct: a protein of the extracellular region of each human Eph receptor fused with the SEAP protein and the His tag; made in house; host or cells: Expi293F cells (culture supernatant)
T3 sequence (P54762 18-540 limits assumed): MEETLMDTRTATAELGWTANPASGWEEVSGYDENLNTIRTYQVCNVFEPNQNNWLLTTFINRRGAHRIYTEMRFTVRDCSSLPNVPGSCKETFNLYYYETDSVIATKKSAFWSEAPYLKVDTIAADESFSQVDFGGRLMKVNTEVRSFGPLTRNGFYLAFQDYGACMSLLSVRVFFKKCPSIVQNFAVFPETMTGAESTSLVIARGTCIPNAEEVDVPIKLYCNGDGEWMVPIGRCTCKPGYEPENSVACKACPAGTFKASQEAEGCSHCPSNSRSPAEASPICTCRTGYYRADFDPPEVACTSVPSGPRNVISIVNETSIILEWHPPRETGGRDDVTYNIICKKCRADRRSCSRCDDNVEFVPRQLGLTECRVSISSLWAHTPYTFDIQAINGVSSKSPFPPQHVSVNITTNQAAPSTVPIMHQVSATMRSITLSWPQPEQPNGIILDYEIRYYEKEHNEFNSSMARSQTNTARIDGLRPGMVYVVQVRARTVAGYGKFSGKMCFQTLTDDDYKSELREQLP

B1: 152 (antibody, V domains shown)
VH: QVQLVQSGSELKKPGASVKVSCKASGYTFTDYSMHWVRQAPGQGLEWMGWINTETGEPTYAQGFTGRFVFSLDTSVSTAYLQISSLKAEDTAVYYCARIPLYYYGSRYWYFDVWGQGTTVTVSS
VL: DIQMTQSPSSLSASVGDRVTITCRASENIYRNLAWYQQKPGKAPKLLLYAATNLADGVPSRFSGSGSGTDYTLTISSLQSEDFATYYCQHFWGTPWTFGQGTKVEIK
modifications: synthetic humanized antibody heavy chain variable region sequence; synthetic humanized antibody light chain variable region sequence
B2: 153 (antibody, V domains shown)
VH: B1 VH with E46K
VL: B1 VL
modifications: synthetic humanized antibody heavy chain variable region sequence; synthetic humanized antibody light chain variable region sequence
B3: 145 (antibody, V domains shown)
VH: B1 VH with E46K, Q62D, G63D, T65K
VL: B1 VL
modifications: synthetic humanized antibody heavy chain variable region sequence; synthetic humanized antibody light chain variable region sequence
B4: 133 (antibody, V domains shown)
VH: B1 VH
VL: EIVMTQSPATLSVSPGERATLSCRASENIYRNLAWYQQKPGQSPRLLIYAATNLADGIPARFSGSGSGTEYTLTISSLQSEDFAVYYCQHFWGTPWTFGQGTKVEIK
modifications: synthetic humanized antibody heavy chain variable region sequence; synthetic humanized antibody light chain variable region sequence
B5: 151 (antibody, V domains shown)
VH: B1 VH with V2I, E46K
VL: B1 VL
modifications: synthetic humanized antibody heavy chain variable region sequence; synthetic humanized antibody light chain variable region sequence
B6: 160 (antibody, V domains shown)
VH: B1 VH with V2I, E46K, Q62D, G63D, T65K
VL: B1 VL with K45Q, S80P
modifications: synthetic humanized antibody heavy chain variable region sequence; synthetic humanized antibody light chain variable region sequence
B7: 159 (antibody, V domains shown)
VH: B1 VH with E46K, Q62D, G63D, T65K
VL: B1 VL with K45Q, S80P
modifications: synthetic humanized antibody heavy chain variable region sequence; synthetic humanized antibody light chain variable region sequence
B8: 157 (antibody, V domains shown)
VH: B1 VH
VL: B1 VL with K45Q, S80P
modifications: synthetic humanized antibody heavy chain variable region sequence; synthetic humanized antibody light chain variable region sequence
B9: 144 (antibody, V domains shown)
VH: B1 VH with Q62D, G63D, T65K
VL: B1 VL with K45Q, S80P
modifications: synthetic humanized antibody heavy chain variable region sequence; synthetic humanized antibody light chain variable region sequence
B10: 154 (antibody, V domains shown)
VH: B1 VH with Q62D, G63D, T65K
VL: B1 VL
modifications: synthetic humanized antibody heavy chain variable region sequence; synthetic humanized antibody light chain variable region sequence
B11: 158 (antibody, V domains shown)
VH: B1 VH with E46K
VL: B1 VL with K45Q, S80P
modifications: synthetic humanized antibody heavy chain variable region sequence; synthetic humanized antibody light chain variable region sequence
B12: 155 (antibody, V domains shown)
VH: B1 VH with V2I, E46K, Q62D, G63D, T65K
VL: B1 VL
modifications: synthetic humanized antibody heavy chain variable region sequence; synthetic humanized antibody light chain variable region sequence

target: T1, human EphA8; assay: Selectivity ELISA of humanized antibodies for human Eph receptor; assay type: binding; details: coated protein 1 nM
Summary of the method: (§1)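 Extracellular domains of human Eph receptors fused to SEAP-His were expressed in Expi293F cells for 5 days and captured from supernatant (1 nM final) on anti-His-coated plates. Humanized anti-EphA4 antibodies were incubated 1 h at room temperature, then HRP anti-IgG secondary, TMB substrate, and absorbance at 450 nm.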

| hEphA8-SEAP-: absorbance at 450 nm, percentage with respect to hEphA4-SEAP-His as 100% [%] | Molecule |
| --- | --- |
| 6.0 | B1 |
| 6.1 | B2 |
| 6.6 | B3 |
| 4.7 | B4 |
| 6.9 | B5 |
| 5.4 | B6 |
| 5.5 | B7 |
| 6.0 | B8 |
| 5.8 | B9 |
| 5.5 | B10 |
| 6.4 | B11 |
| 5.5 | B12 |

target: T2, human EphA1; assay: as above; assay type: binding; details: coated protein 1 nM
Summary of the method: as §1

| hEphA1-SEAP-: absorbance at 450 nm, percentage with respect to hEphA4-SEAP-His as 100% [%] | Molecule |
| --- | --- |
| 5.8 | B1 |
| 6.3 | B2 |
| 6.7 | B3 |
| 4.9 | B4 |
| 7.1 | B5 |
| 6.5 | B6 |
| 5.4 | B7 |
| 6.2 | B8 |
| 5.6 | B9 |
| 6.4 | B10 |
| 6.5 | B11 |
| 5.5 | B12 |

target: T3, human EphB1; assay: as above; assay type: binding; details: coated protein 1 nM
Summary of the method: as §1

| hEphB1-SEAP-: absorbance at 450 nm, percentage with respect to hEphA4-SEAP-His as 100% [%] | Molecule |
| --- | --- |
| 5.9 | B1 |
| 6.0 | B2 |
| 6.5 | B3 |
| 4.6 | B4 |
| 6.8 | B5 |
| 6.1 | B6 |
| 5.3 | B7 |
| 6.1 | B8 |
| 5.7 | B9 |
| 6.3 | B10 |
| 6.2 | B11 |
| 5.4 | B12 |
